The source of these data is US20180079804A1 (Hoffmann-La Roche, published 2018).

Residue numbers refer to the chain shown, from its start. Like-named read-outs stand apart in the source and are kept apart here. Non-standard residues stand in square brackets, D forms with d. No end group written: not given here. *: point of attachment. Biotin = O=C1N[C@H]2[C@H](CS[C@H]2CCCCC(=O)*)N1; pS = N[C@@H](COP(=O)(O)O)C(=O)O; code U = not defined here; code X = not defined here

For assay [1], the target named is T1, full length human tau SEQ ID NO: 01 (human, UniProt P10636 1-758).
T1 construct: not phosphorylated; also called tau protein; non-phosphorylated full-length human tau
The experiment in a line: ELISA, non-phosphorylated full-length human tau coated at 1 ug/ml, antibody titrated. For orientation: An ELISA detects its analyte on a solid surface through an enzyme-linked reagent.

Assay [2] has as its target T2, biotinylated pTau fragment pTau(416-430)[Bi-XUUUU-416; pSer-422]amid (human, reading uncertain; also: printed as pTau(416-430)[Bi-XUUUU-416; pSer-422]amid).
T2 construct: also called Tau(pS422) fragment
T2 peptide: {Biotin-code X-code U-code U-code U-code U}-SIDMVD[pS]PQLATLAD-NH2
The experiment in a line: SPR direct assay (Example 11), Fab over immobilized biotinylated fragment, 25 C. On the procedure: Binding of anti-pTau antibody Fab fragment samples to pTau fragment was investigated by surface plasmon resonance using a BIACORE T200 instrument (GE Healthcare). […] Running and dilution buffer for immobilization was HBS-N, pH 7.4 (10 mM HEPES, 150 mM NaCl, pH 7.4, GE Healthcare). For the following kinetic characterization, running and dilution buffer was PBS-T (10 mM phosphate buffered saline including 0.05% Tween 20), pH 7.4. The sample block was set to 12° C. The flow cell was set to 25° C. and primed with running buffer twice.
Association was measured by injection of the anti-pTau antibody Fab fragment samples at various concentrations in solution for 180 seconds at a flow of 30 μl/min starting with 100 nM in 1:3 dilutions. The dissociation phase was monitored for up to 600 seconds and triggered by switching from the sample solution to running buffer. The surface was regenerated by washing with one injection of 10 mM glycine solution, pH 1.7 for 60 seconds at a flow rate of 10 μl/minute. Bulk refractive index differences were corrected by subtracting the response obtained from a blank surface. Blank injections were also subtracted (=double referencing). For calculation of KD and other kinetic parameters the Langmuir 1:1 model was used.

Assay [3] concerns the target T3, Tau(pS422) fragment SEQ ID NO: 03 (human).
T3 construct: also called phosphorylated tau peptide
T3 peptide: SIDMVD[pS]PQLATLAD
Nature of the assay: ELISA. The method, then: (§1) Non-biotinylated peptide/protein/aggregate was added to non-coated Maxisorb plates, biotinylated peptide/protein/aggregate in PBS was added to streptavidin-coated Maxisorb plates, and plates were incubated over-night. The supernatant was discarded and the wells washed three times with 90 μl wash buffer (1x PBS/0.1% Tween 20). Remaining reactive spots were blocked with blocking buffer (1x PBS/2% BSA (Bovine Serum Albumin Fraction V, fatty acid free, Roche, Cat. No.: 10735078001)/0.05% Tween 20) by incubating for 1 hour. The supernatant was discarded and the wells washed three times with 90 μl wash buffer. Samples and control antibody were prepared in 12 dilutions (1:2) in ELISA buffer (1×PBS/0.5% BSA (Bovine Serum Albumin Fraction V, fatty acid free, Roche, Cat. No.: 10735078001)/0.05% Tween 20) with a start concentration of 500 ng/mL. The incubation time was 60 minutes at room temperature on a shaker. The supernatant was discarded and the wells washed three times with 90 μl wash buffer. Solutions of secondary antibody were prepared in ELISA buffer. A total of 25 μl antibody-mix was transferred to all wells of the assay plate and the plate was thereafter incubated on shaker for 60 minutes at room temperature. The supernatant was discarded and the wells were washed three times with 90 μl wash buffer. 25 μl of ABTS solution was added to all wells. The absorbance was read at 405 nm-492 nm.

Assay [4] deals with T3, Tau(pS422) fragment SEQ ID NO: 03. Nature of the assay: ELISA. The method, then: as §1, with “No.: 10735078001)/0.05% Tween 20) with a start concentration of 500 ng/mL.” left out
The target of assay [5] is T4, tau peptide residues 416 to 430 of SEQ ID NO: 01 (human, also: biotinylated, site not given here).
T4 construct: also called non-phosphorylated tau peptide
T4 peptide: SIDMVDSPQLATLAD
Nature of the assay: ELISA. On the procedure:
as §1, with “No.: 10735078001)/0.05% Tween 20) with a start concentration of 500 ng/mL.” left out

The target in assay [6] is T1, full length human tau SEQ ID NO: 01. The experiment in a line: ELISA. On the procedure:
as §1, with “No.: 10735078001)/0.05% Tween 20) with a start concentration of 500 ng/mL.” left out

In assay [7] the target is T3, Tau(pS422) fragment SEQ ID NO: 03. The experiment in a line: SPR capture assay (Example 10), 25 C. The method, then: Binding of pTau fragment to anti-pTau antibodies was investigated by surface plasmon resonance using a BIACORE T200 instrument (GE Healthcare). Around 10,000 resonance units (RU) of the capturing system (10 μg/ml goat anti-human Fc antibody; Jackson Immuno Research; Order Code: JIR 109-005-098) were coupled on a CM5 chip (GE Healthcare BR-1005-30) at pH 5.0 by using an amine coupling kit supplied by the GE Healthcare. As running buffer, HBS-N pH 7.4 (10 mM HEPES, 150 mM NaCl, pH 7.4, GE Healthcare) was used. For measurement of the samples, running and dilution buffer was PBS-T (10 mM phosphate buffered saline including 0.05% Tween 20), pH 7.4. The sample block was set to 12° C. The flow cell was set to 25° C. and primed with running buffer twice.

For assay [8] the target is unchanged. The experiment in a line: ELISA, ratio of EC50 values. The method, then: Rabbit monoclonal antibodies were recombinantly expressed in HEK293 cells. […] For preparation of ELISA plates, streptavidin pre-coated microtiter plates were incubated with biotinylated tau (415-430)[pS422] at 50 ng/ml for 1 hour at room temperature. Coating with KLH or control peptides was performed at 1 μg/ml. Rabbit anti-Tau(pS422) antibody (Abcam AB51071) or rabbit antibody containing supernatants were incubated in the antigen labeled microtiter plates for 60 minutes at various concentrations. After intensive washing, the binding of the rabbit antibodies was detected using a sheep anti-rabbit IgG […] conjugated detection antibody (Chemicon AQ301D). After incubation with TMB at room temperature absorbance at 370 nm-492 nm was measured. The antibody binding was characterized by its EC₅₀ values. […] Cross-reactivity with KLH or MCAK phosphopeptide was estimated by single-point measurement at high concentrations, i.e., at 1:5 dilution of the cell culture supernatants. […] Binding to KLH and MCAK control phosphopeptide was at background level with all antibodies, which is about 1 to 3% of the maximal value measures with tau phosphopeptide.

T1 sequence (P10636 other isoform, or with tags, fused parts or gaps limits assumed): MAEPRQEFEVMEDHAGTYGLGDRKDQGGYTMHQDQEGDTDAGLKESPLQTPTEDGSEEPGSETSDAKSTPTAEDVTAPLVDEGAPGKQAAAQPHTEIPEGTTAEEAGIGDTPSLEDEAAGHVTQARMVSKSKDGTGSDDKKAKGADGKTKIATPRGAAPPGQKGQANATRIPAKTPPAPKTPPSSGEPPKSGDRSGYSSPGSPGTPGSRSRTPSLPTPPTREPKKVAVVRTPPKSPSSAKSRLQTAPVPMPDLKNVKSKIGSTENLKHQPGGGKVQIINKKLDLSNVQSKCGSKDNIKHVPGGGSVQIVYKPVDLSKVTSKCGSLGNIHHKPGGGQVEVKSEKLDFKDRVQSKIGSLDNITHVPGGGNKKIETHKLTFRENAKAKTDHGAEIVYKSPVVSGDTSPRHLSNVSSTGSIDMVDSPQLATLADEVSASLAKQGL

B1: VH32/VL21 (antibody, V domains shown)
VH: EVQVLESGGGLVQPGGSLRLSCAVSGFSLSSNAINWVRQAPGKGLEWVGYIAVSGNTYYASWAKGRFTISRDNSKNTVYLQMNSLRAEDTAVYYCGKSNIWGQGTLVTVSS
VL: AQVMTQSPSSLSASVGDRVTITCRSSQSVRTNKLAWFQQKPGQPPKRLIYSASTLDFGVPSRFSGSGSGTEFTLTISSLQPEDFATYYCLGYFDSSADIVAFGGGTKVEIK
notes: full size IgG
As to B1, the binding result in assay [1] is reported as “no binding (tested: 1000 ng/ml)”.

B2: VH35H5/VL31A1 Fab fragment (Fab, V domains shown)
VH: B1 VH with F27I
VL: B1 VL with T31N, T54D, F57Y
As for B2, in assay [2], the affinity, expressed as Kd, was 0.3 nM; the koff – broadly, the rate constant with which the complex falls apart – amounted to 0.000143 s⁻¹; the kon (in general, the rate constant with which the complex forms) amounted to 410000 M⁻¹ s⁻¹.

B3: VH32/VL22 (antibody, V domains shown)
VH: B1 VH
VL: B1 VL with K33R, F57Y
notes: full size IgG
As to B3, the figures for the EC50 in assay [3] and in assay [4] were 0.0056 µg/mL and 0.0404 µg/mL, respectively. Also, the “OD@1 µg/mL” value turned out to be 2.26 OD in assay [5] and 0.14 OD in assay [6]. Moreover, the binding result in assay [1] is “no binding (tested: 1000 ng/ml)”.

B4: VH32/VL35G4 (antibody, V domains shown)
VH: B1 VH
VL: B1 VL with L90A, D94E, S95A, S96P
notes: IgG captured via anti-human Fc
Consider B4, for which the “OD@1 µg/mL” value worked out at 0.07 OD in assay [5] and 0.04 OD in assay [6].

B5: VH35H5/VL49G1 Fab fragment (Fab, V domains shown)
VH: B1 VH with F27I
VL: B1 VL with T31S, T54N, F57Y
In the case of B5, in assay [2], binding was characterised by a dissociation constant (Kd) of 0.1 nM, the koff was found to be 6.03e-05 s⁻¹ and the kon turned out to be 423000 M⁻¹ s⁻¹.

B6: VH32/VL4G1 (antibody, V domains shown)
VH: B1 VH
VL: B1 VL with S96P
In the case of B6, the EC50 (in general, the concentration giving half of the maximal effect) in assay [4] worked out at 0.0273 µg/mL. For the same molecule, the “OD@1 µg/mL” value in assay [5] came to 1.13 OD; in assay [6], 0.04 OD.

B7: VH35H5/VL35F2 (antibody, V domains shown)
VH: B1 VH with F27I
VL: B1 VL with S96P, A97L
notes: as for B4
The molecule B7 yielded a concentration for a half-maximal effect (EC50) in assay [4] of 0.0452 µg/mL. For the same molecule, the “OD@1 µg/mL” value in assay [5] was determined as 1.31 OD. In addition, the “OD@1 µg/mL” value in assay [6] turned out to be 0.04 OD. For the same molecule, in assay [7], the Kd (as a rule, a measure of binding affinity in units of concentration) is 2.29 nM; the koff was 0.000321 s⁻¹; the kon is 140000 M⁻¹ s⁻¹.

B8: VH76A6/VL35G4 (antibody, V domains shown)
VH: B1 VH with S31N, N32S
VL: B1 VL with L90A, D94E, S95A, S96P
notes: as for B4
On to B8, for which the “OD@1 µg/mL” value in assay [5] was determined as 0.07 OD; in assay [6], 0.04 OD.

B9: VH32/VL22 Fab fragment (Fab, V domains shown)
VH: B1 VH
VL: B1 VL with K33R, F57Y
In assay [2], B9 had a Kd of 0.6 nM, a koff of 0.000276 s⁻¹ and a kon of 479000 M⁻¹ s⁻¹.

B10: VH76A6/VL145B12 (antibody, V domains shown)
VH: B1 VH with S31N, N32S
VL: B1 VL with T31S, S51A, T54N
notes: as for B4
On to B10, for which the results for the “OD@1 µg/mL” value in assay [5] and in assay [6] were 0.44 OD and 0.04 OD, respectively.

B11: VH35H5/VL31A1 (antibody, V domains shown)
VH: B1 VH with F27I
VL: B1 VL with T31N, T54D, F57Y
notes: IgG captured via anti-human Fc; also called antibody 1
Molecule B11 displayed an EC50 in assay [4] of 0.033 µg/mL. Moreover, the “OD@1 µg/mL” value in assay [5] amounted to 1.03 OD. In addition, in assay [6], the “OD@1 µg/mL” value came out at 0.04 OD. In assay [7], this molecule showed a Kd of 1.62 nM, a koff of 0.000616 s⁻¹ and a kon of 380000 M⁻¹ s⁻¹.

B12: VH35H5/VL49G1 (antibody, V domains shown)
VH: B1 VH with F27I
VL: B1 VL with T31S, T54N, F57Y
notes: IgG captured via anti-human Fc; also called antibody 2
As for B12, the EC50 in assay [4] worked out at 0.034 µg/mL. Also, the “OD@1 µg/mL” value in assay [5] amounted to 1.42 OD. Moreover, the “OD@1 µg/mL” value in assay [6] was 0.04 OD. In assay [7], this molecule showed a Kd of 2 nM, a koff of 0.000624 s⁻¹ and a kon of 312000 M⁻¹ s⁻¹.

B13: VH00/VL00 (antibody, V domains shown)
VH: QSVEESGGRLVTPGTPLTLTCTVSGFSLSSNAINWVRQAPGKGLEWIGYIAVSGNTYYASWAKGRFTISKASTTVDLKMTSPTAEDTGTYFCGKSNIWGPGTLVTVSL
VL: AQVLTQTTSPVSAAVGSTVTISCQSSQSVRTNKLAWFQQKPGQPPKRLIYSASTLDFGVPSRFSASGSGTQFTLTISDVQCDDAATYYCLGYFDCSIADCVAFGGGTEVVVK
notes: variable domains of rabbit mAb 086; also called VH00 with VL00 (rabbit antibody); parental rabbit antibody
B13: the “OD@1 µg/mL” value worked out at 0.54 OD in assay [5] and 0.04 OD in assay [6].

B14: mAb 086 (antibody, V domains shown)
VH: B13 VH
VL: B13 VL
notes: also called rabbit antibody 086
As for B14, the “selectivity for phosphorylated tau fragment compared to non-phosphorylated tau peptide” value in assay [8] was not below 100 fold.
